The nature of the data set: soluble on expression in E. coli; label from the status in PepcDB or PDB records.
Regarding “SIMTVRTTHTEVEVHAGGTVELPCSYQLANDTQPPVISWLKGASPDRSTKVFKGNYNWQGEGLGFVESDSYKESFGDFLGRASVANLAAPTLRLTHVHPQDGGRYWCQVAQWSIRTEFGLDAKSVVLKVTGHTPSNNVHVSTAEVVQVDEGNDITMTCPCTDCANANVTWYTGPTFFENYETGTYQPLANKNQFGITWFSSEIAGRASFSGARNLVIRAAKITDAGRVWCELATGQGELDADRSSTILKV”, the “soluble on expression in E. coli” value is reported as “soluble”. Then “MGSDKIHHHHHHMNRRDFLKSALITGAALGLPAGMDPLLTVLKAAERPDLAVVRGTPPAAITRAAIDSLGGMKRFVSRGDVVVVKPNIGWDRTPEYAANTNPEVVGAVVRLCFEAGAKQVKVFDRPVNDPRRTYRQSGIAAAASALGASVLFTDSRKFKDMRINGSSLKSWPLYTEVFEADKVINIPIAKTHGTSKLTLGMKNWMGVMGGWRGRIHQRIDESLVDLATFIKPTLTILDAVRILTDNGPQGGNLADVRRLNMVIAGTDAVAVDAFGATLFGMKPAELGFVRIGHQRRLGSMDLAGMNIRRITL”, with “not soluble”; and “MSVSPVQPDPSVIGGVPKAPFVLKPNLARLFNDRASRFEALAQGSHLAPYLNFLAGITRIQSELVSALPPPEPVPADRVERARANAMPPIDRAAMGGSPDCREVLQQFFEKAEALEKPAAAAEALAQVRTADEEMLTWMIGNVMADDLPVESLAHHLYVAAAMQIQAARLAAGLDGSRLVPIRVGVCPACGGRPVASMVIGFHGAEGARYASCSCCATMWNEVRVKCLACGSTKGIGYQAVETGDEEATVKAEVCDTCNSWMKILYQNKNPSLDVVADDVASLGLDLLMKDTEYKRAGFDPFLMGY”, with “not soluble”; and “MLSIKGKKWRNWTGNVEGTPHYTMYPESIQDVVEVVGLARKKGKKIRVVGSGHSFTPLVQTEEVLVSLDELKGIVNIDAEKMVAEVWAGTKLYDLGKLLEEKGYAQENLGDIDSQSIAGAISTGTHGTGITFGSLSTQVIEITAVLSNGESIVCSETENVEYWRAFQLSLGMLGIIVKIKLKVIPAYSLVYESEKQSLSTVMNKLEEYKKHRHFEFFVFPYSDEVQVKLTNETTNTGSDLKWHKLKVELLENRMFSLLSKGCKWFPSISKGVSRLSAKAVPNTKIIGPSYEVFATSRTVPFYEMEYSIPSKYMRTVVEEISNLIEKKKYKVHFPIECRYVKGDDIWLSPAYGRDSAYIAVHMYKGMKYAAYFGEVEKIFLKYEGRPHWGKMHTLSYEQLQDIYPEFHSFLQARKSLDELGMFFNPYAEKLFIPLFAGQ”, with “not soluble”. As to “MSNGQLVSQVTVGHDKPLDREKVCPMLLRVFVANNRHNPMSEYNSRNGGSVPPSELQMHTWMDCSLRELTSLIKEVNPDARRKGTTFDFAIVQADRGSPRYILRDVGNTTNGERGIDDNKTLQQCKFEVGDFVDVAISLPSQGRRFNNREQGDRFDHRQRQRSPIR”, the “soluble on expression in E. coli” value is on record as “not soluble”.

Turning to “SEQSSPGFRQTHLQDLSEATQDVKEENHYLTPRSVLLELDNIIASSDSGESIETDGPDQVSGRIECHYEPMESYFFKETSHESVDSSKEEPQTLPETQDGDLHLQEQGSGIDWCLSPADVEAQTTNDQKGSASLTVVQLSILINNIPDESQVEKLNVFLSPPDVINYLALTEATGRICVSQWEGPRRLGCIFCHGDHLLAVNDLKPQSLEEVSLFLTRSIQKEKLKLTIGRIPNSETFHAASCMCPSKCQSAAPSQLDKPRLNRAPKRSPAIKKSQQKGARE”, the “soluble on expression in E. coli” value is recorded as “soluble”. Then “MGSDKIHHHHHHMKQAYIFDMDGTLFQTNRILGHALEDAFDFLRMNGRWTGKTPLAEYQTIMGVSLPEVWQTLLPGHSDEERALVDRIFQDALIRHIEQGQGALYSGAEATLQALKETGHPLYIASNGWKVYLTAIVRQYGLNRWLDGVYSIEDVASSQKSDLVAYILSEHQLTDMVVVGDRISDFQAAKVNRLPAVGCRFDFSNEAELEQADVIIDDLRELFQIDLKAVTK”, with “not soluble”; and “MEEVTIKANLIFANGSTQTAEFQGTFEQATSEAYAYADTLKQDNGEWTVDVADQGYTLNIQFAG”, with “soluble”; and “MAHHHHHHMTSSSVTPDQVLAFTAPTERFLCPLTANKYGVEFYQFTIRDIEQNKVLFEVGEAPDGSADGSVTDMLARVAQLSEEEAAAARTIRYRFAPSFLRKTAVGAKLVFGVNGDQPVPKFRMIERHYFRNVLIKSFDFEFGFCIPHSTNTWEAIYDMPSLNPEWEEAIVASPFEMASDSFYFVGNELIMHNKAYYAYDGEEL”, with “not soluble”. As for “MTHQDTIASEDGSDINILLNTVQNAKALVIFAHGAGANMSHEFMNETSRLLNHLGINVLRFNFPFMDKRALTGKKYPPDRMPKLLLCYETVIEYVVDKKLSHQLPLFIGGKSMGSRVAASLVADSDLLKSRLLNHISGVFCIGYPFHPAKKPEKLRLEPLVDANKPVLIVQGDRDTLGNKVEIASYRLAEHCQCVFLEDGDHSLKPRVKSGFTHQAHMQSAVEEIVTFIERVTISS”, the entry is “not soluble”; as for “MGSDKIHHHHHHMTPTIVFDGGYTLWSAGDDAPLAFMTDGLARRLGTPVFKAFVRHPHASFDRRFGVQTLPNLEHESKAGAAGRWFRGLNFTDPRGELAAVADTVAQADLLIMGAGNFITEVGMDVLRGHLPRFCTMALMAQMAGTPYMLFGLSANVLHNPWAVRAAGWLLRGAAAVTFRERMAVENLRACGVALPEHTLLPDAALGAPRAPQGRGDEILRQEQIPSRTAGLRLALAVRDLSWMGSHAAALYERHQTELINLWCARKDNDVLLVPQCCYHADSGITDDRVLGRTLRGRSRFSDKVHVIEGCYHYDDIESLYTQADCAVATRLHGSVFAARMGIPVVGLAYEDKVRGFFGQLQAEDQCLPWDAPATDILALLDSLMLRVQAVRDHMLHRIEQLQQQLAGYIDIAAALAAPAGDHTP”, “not soluble”. As for “MSLTIPDSTPSDFSHEFFGSLDPQALAHPDSIKWQHYGEGVIPMWIADMDFPVAPPILRALEDRLTRGLGYPLGRDDRLIADLQTKWASQGLTDVPADGIHFTPSVVPGLYAGVHGLTEPGDRVVTMTPIYHPFHLAINDLGREVAAAPLREGDTRWEIDWDALERAAEGARLLMLCHPHNPCGRVWDADELARLRELVLAHDLYVISDELHADLRFTDAPFEAFAADPRVRDRTLTVTGPCKAFNTAGLGIGVMVTHDPELLARVQRRVAGLGGHPSALSFTMWRVALEDGGPWLARTVEYLRGNRDFMTAFLRERLPWVRFTVPEATYLAWLDLREHPEAGRIQEFLLEEAKVAVHNGPTFAPGEQGAAYQGFIRVNFATSRAILTEALERMARALDTRQEGHHHHHH”, the “soluble on expression in E. coli” value is given as “soluble”.

In the case of “MAGVTKEQIAKAKEWDLLSYLQAYEPQELKKSGPREYCTRTHDSLKISNGKWCWNSRGIGGRTALDYLIKVRGMDFVGAVETLCGYCAPPPEKAPPIKEKQPKPFRLPQASRCASAVVGYLQDRGIDPELLGVCMEAGILYESCKYQNCVFVGRDTAGNARAASLRGTRDGFRMDVEGSDKRYSFCLPAGKADCPRLAVAESPIDALSLATLVKLSGGEPRDSHYLSLGGTGPRALIQFLHDHPHVTQVSLCLDNDKAGLEGMERLTQEIQNDAELSRRVKLVYPNPPKQGKDYNEFLCTHVKAVRTAQRQRDAAR”, the “soluble on expression in E. coli” value was “not soluble”. As for “MSLQEPFSQLESEIQVLKSHIANISGLSVPKNVLKNADGSTLKSLSEASLKVIEKTIRITAHAVNLKLRIETDIANLKNQIKLLTETKEQQDALSKALEASSTLVKLEDRHERLTERIQALEKKIDEAIRQLSYKESMPLSKEEKLWIREVNGINALLNNAGEDSLALKIEDLKVQVTALSQNEHSANEHLTDAEIQKRQNSIILAKLSLWLQNDLEKLDEVKQSVTDCIRRLREGHHHHHH”, the entry is “soluble”; as for “MEQQNTLNDIKQTIVFNASIQKVWSVVSTAEGIASWFMPNDFVLEVGHEFHVQSPFGPSPCKVLEIDEPNHLSFSWDTDGWVVSFDLKDLGDNKTEFTLIHGGWKHPDEILPKANAKSSIIRDRMSGGWVAIVNEKLKKVVEG”, “soluble”; as for “MGSDKIHHHHHHMSRFVGTETEYGIATPSNTMLSPIVTSTHAVVAFSLGERCASQARWDFSEESPLRDLRGFDLRRYRTVPVVDPHALGVANSVLINGGRFYVDHAHPEYSSPETSSAFQAMLYDAAGDVVMNRAVELVAENSQRKHSVLEHHDPCPPLKIYKNNVDGKGASYGSHENYLYNRETPFEEISSGLTPFFITRQVIIGAGRVGIGQYGEKSGFQISQRADYIEQEISLETTLNRGIINTRDEPHADSEHFGRLHVIIGDANMSQTSNFLKIGMTTLVLDAIEAGVDFSDLAVANPVAEVSAISHDLTLTHKIVLRDGRTLTALELLDEYRKRVSPQSDDDLDVLKEWSEILVLLQKGPFYAADRLDWCAKWQLISSFIKRGVSIDDPKIQLIDLQYADIDPAKSLYHALVRKGRMRTLVSTEQINNAAWSPPKGSRAYLRGSLISRFPDSVVQASWDSITLQTSRDQATKIKMPVVQSLSAEAIATIDTASSVKEVATILSQWLPVTTISLT”, “not soluble”. Then “MGSDKIHHHHHHMAELSTRYNPAEIETKWYRYWEEKGYFTPKGVGEKFSIVIPPPNITGRIHMGHALNITLQDIVVRYKRMKGYDVLWVPGEDHAGIATQNAVEKFLLQTQGKTREEIGREKFLEITWEWANKYRREIREQIKALGASVDWTRERFTLDEGLSRAVRKVFVELYRKGLIYRGKYIVNWCPRCKTVLSDEEVEHKEHKSKLYYVKYPVKDSDEYIVVATTRPETMLGDTAVAVHPEDERYKNFVGKTLILPLVGREIPVVADKYVDPKFGTGAVKVTPAHDPNDYLIAQRHNLPMIEIFDDNARINENGGKYKGLDRYEAREKIVKDLEEQGFLVKIEDYTHSVGHCYRCDTVIEPKLSDQWFVSTKPLAKRAIEAVENGEIRFFPERWTKVYLNWMYEIRDWCISRQLWWGHRIPVWYCQDCGHLNVSEEDVEKCEKCGSTNLKQDEDVLDTWFSSALWPFSTLGWPEETEDLKRYYPTDLLVTGFDIIFFWVARMIMMGYEFMNDKPFSHVYIHQLVRDKYGRKMSKSLGNGIDPLEVIDEYGADPMRFTLAILAAQGRDIKLDPRYFDAYKKFANKIWNATRFVLMNLEDYKEVPLENLKTVDKWILTRLNKTVEEVTNALENYDFNIAARTIYNFFWDDFCDWYIEASKPRLKTEERNLVQTVLVKVLDASLRLLHPFMPFLTEELWQKLPVAGESITIAKWPEIERELIDETAEKEFTRLMNMVRGVRNVRAEMNLPQSQRVKVYIKGYEVTEEEELLLKTLGNIEEVSFVNEKPPKTATAYVEEEIEAYVDLGGLIDFEKEKERLKQIMEKIQKEIDRLEKKLANKDFVEKAPEEVVEETKEKLNTNRERLARLESILRDLE”, with “not soluble”.

Consider “MRRAGYLHLYGLNLVFDRVGKGPPVLLVAEEASRWPEALPEGYAFYLLDLPGYGRTEGPRMAPEELAHFVAGFAVMMNLGAPWVLLRGLGLALGPHLEALGLRALPAEGVEVAEVLSSKLSYGNIDLGGNL”, for which the “soluble on expression in E. coli” value is recorded as “soluble”. Regarding “MISAHVWADAQRLWDFQQMGHEPHPCSVAIGLGSHDLGVAETTAELYHRGMAPVIVFTGATSRTTHERMPRGEAEHYRERAVELGVPERAILVEPNARNTGENIRLSRALLEDLGMPVTSVLLVSKPYEERRAYATARKLWPNVEWVCVSTSMTLPDYVKSIGDARLVIDMLVGAQQRLMVYPRQGFMIKQEIPEPIMTAYEHLRGHGFTSRLVPETAEQTLEHHHHHH”, the “soluble on expression in E. coli” value is reported as “soluble”. Then “KYIMHQTTPNYTVTLLAALLPWQFFQGAVQGSTTSIISNSNLIKKIYFPRQIMPLSI”, with “not soluble”.

These data come from the DeepSol protein solubility set.
